This test concerns the target histone H3 methylated on lysine 9 and phosphorylated on serine 10. In words: binding graph, method not stated (FIG. 2).

Regarding HP1 (heterochromatin protein 1), the fold drop in binding affinity (against H3 methylated on Lys 9 without phospho-Ser 10) was 100 fold.

For the origin of these results see patent US20060073517A1.
